From patent US20140243256A1 (ADMINISTRATORS OF THE TULANE EDUCATIONAL FUND, published 2014)

Molecular target: T1, Pichinde virus (PICV) glycoprotein spikes on purified virus (Pichinde virus (CoAn 3739), UniProt P03540 59-273; P03540 2-58)
T1 construct: also called monomeric or oligomeric glycoproteins; GPC
T1 sequence 1: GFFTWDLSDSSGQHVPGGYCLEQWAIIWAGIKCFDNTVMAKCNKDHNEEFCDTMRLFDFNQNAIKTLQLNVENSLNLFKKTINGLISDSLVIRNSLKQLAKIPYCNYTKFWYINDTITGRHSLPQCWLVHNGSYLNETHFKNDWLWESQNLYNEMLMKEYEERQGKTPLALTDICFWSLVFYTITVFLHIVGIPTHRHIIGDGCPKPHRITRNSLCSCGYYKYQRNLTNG
T1 sequence 2: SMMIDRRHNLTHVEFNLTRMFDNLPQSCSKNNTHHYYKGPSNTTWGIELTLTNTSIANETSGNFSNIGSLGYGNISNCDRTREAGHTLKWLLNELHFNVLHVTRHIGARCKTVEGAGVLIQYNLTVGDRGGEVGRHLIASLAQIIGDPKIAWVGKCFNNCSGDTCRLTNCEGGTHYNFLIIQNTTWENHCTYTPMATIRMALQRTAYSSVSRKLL
T1 sequence 3: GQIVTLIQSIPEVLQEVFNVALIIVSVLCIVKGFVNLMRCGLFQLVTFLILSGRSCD
Assay: glutaraldehyde crosslinking of PICV with peptide

Does LNLFKKTINGLISDSLVIR (TAMRA conjugated (position of the dye not stated), also called TAMRA-peptide) [TAMRA-conjugated Peptide 1] bind?
Result: no binding
